Laboratory results as given in publication PMC10624691, “HSPA8 acts as an amyloidase to suppress necroptosis by inhibiting and reversing functional amyloid formation” (Cell Research, 2023).
Where a chain is given by its changes, count along the chain named.

B1: hRIP3(388-518) tagged with 6xHis-Sumo (RIP3 fibrils of Fig. 4) (domain or fragment, human, UniProt Q9Y572 388-518, looked up)
chain: SSDSMAQPPQTPETSTFRNQMPSPTSTGTPSPGPRGNQGAERQGMNWSCRTPEPNPVTGRPLVNIYNCSGVQVGDNNYLTMQQTTALPTWGLAPSGKGRGLQHPPPVGSQEGPKDPEAWSRPQGWYNHSGK
notes: human RIP3 residues 388-518; also called RIP3 amyloids; source: E. coli BL21 (DE3), purified (Ni-NTA, Superdex 200)
B2: RIP1(497-582) (domain or fragment, human, UniProt Q13546 497-582, looked up)
chain: MPSLHNIPVPETNYLGNTPTMPFSSLPPTDESIKYTIYNSTGIQIGAYNYMEIGGTSSSLLDSTNTNFKEEPAAKYQAIFDNTTSL
notes: the reagents paragraph prints 498-582; two first limits printed (497 and 498); also called RIP1_((498-582)); source: recombinant, generated previously
B3: TRIF(677-698) (peptide, UniProt Q8IUC6 677-698, looked up)
peptide: QPLIIHHAQMVQLGLNNHMWNQ
notes: TRIF residues 677-698; source: custom-made by WuXi AppTec
B4: His-Sumo-RIP3(388-518)-4A (domain or fragment, human, UniProt Q9Y572 388-518, looked up)
chain: B1 chain with V71A, Q72A, V73A, G74A
notes: human RIP3 residues 388-518 with the RHIM core VQVG replaced by AAAA; also called His-tagged RIP3-RHIM-4A; His-tagged RHIM-4A-containing RIP3 (388-518 aa); source: E. coli, purified

Legend:
[1] = target: T1, recombinant hHSPA8-CT (C-terminal fragment 385-647, SBD; 6xHis-Sumo) (human, UniProt P11142 385-646); assay: negative staining immunogold EM; RIP3 fibrils with HSPA8-SBD on grids; anti-HSPA8 antibody 1:100, anti-rabbit gold-conjugated antibody; settings: both partners purified
T1 construct: human HSPA8 C-terminal fragment, residues 385-647 as printed; also called HSPA8-SBD; HSPA8 SBD domain; source: E. coli BL21 (DE3), purified (Ni-NTA, Superdex 200)
T1 sequence (P11142 385-646): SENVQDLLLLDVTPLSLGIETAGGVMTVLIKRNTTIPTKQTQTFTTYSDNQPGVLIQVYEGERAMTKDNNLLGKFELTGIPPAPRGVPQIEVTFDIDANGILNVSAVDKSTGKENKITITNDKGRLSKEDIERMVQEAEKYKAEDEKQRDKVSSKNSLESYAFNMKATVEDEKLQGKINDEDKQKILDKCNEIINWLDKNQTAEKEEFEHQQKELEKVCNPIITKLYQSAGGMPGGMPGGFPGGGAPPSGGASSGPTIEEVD

[2] = target: the molecule itself; assay: seeded fibril growth assay (ThT fluorescence, negative-stain EM, pelleting); sonicated fibril seeds (0.5 uM) with monomers (5 uM), with or without HSPA8 (5 uM); 30 C by the methods, 37 C for 2 h by the legend of Fig. 3c; fibrils pelleted at 12,000 g
[3] = target: T2, GST-tagged HSPA8-SBD domain (GST-HSPA8-SBD 385-647) ( (human or mouse cDNA cloned), UniProt P11142 385-646); assay: pull-down; His pull-down on Ni-NTA; His-Sumo-RIP3(388-518)-4A as bait, GST-HSPA8-SBD as prey; mixed 1:1 (50 uM each) for 6 h at 4 C; settings: both partners purified
T2 construct: The plasmid methods name only 6xHis-Sumo constructs for E. coli; the GST construct is not described there; source: E. coli, purified
T2 sequence (P11142 385-646): as above

Row | Binder | binding result [2] | other results
1 | B1 |  | binding result [1]: binds
2 | B2 | binds | 
3 | B3 | binds | 
4 | B4 |  | binding result [3]: binds
